T1: human neuropeptide Y Y2 receptor on SMS-MSN cells (human, UniProt P49146 1-381)
T1 construct: whole, on cells; also called NPY Y2 receptor; SMS-MSN (Y2)
T1 sequence (looked up): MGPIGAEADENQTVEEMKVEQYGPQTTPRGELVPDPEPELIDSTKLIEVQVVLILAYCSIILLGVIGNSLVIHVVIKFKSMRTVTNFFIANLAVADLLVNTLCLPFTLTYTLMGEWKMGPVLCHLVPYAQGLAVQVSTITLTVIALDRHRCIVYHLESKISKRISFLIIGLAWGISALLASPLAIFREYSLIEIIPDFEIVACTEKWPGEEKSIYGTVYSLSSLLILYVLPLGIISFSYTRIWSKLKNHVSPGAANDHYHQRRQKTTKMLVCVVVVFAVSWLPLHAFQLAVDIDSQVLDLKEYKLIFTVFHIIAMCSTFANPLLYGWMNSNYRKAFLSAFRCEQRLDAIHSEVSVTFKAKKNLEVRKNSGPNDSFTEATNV

T2: human neuropeptide Y Y1 receptor on SK-N-MC cells (human, UniProt P25929 1-384)
T2 construct: whole, on cells; also called NPY Y1 receptor; SK-N-MC (Y1)
T2 sequence (looked up): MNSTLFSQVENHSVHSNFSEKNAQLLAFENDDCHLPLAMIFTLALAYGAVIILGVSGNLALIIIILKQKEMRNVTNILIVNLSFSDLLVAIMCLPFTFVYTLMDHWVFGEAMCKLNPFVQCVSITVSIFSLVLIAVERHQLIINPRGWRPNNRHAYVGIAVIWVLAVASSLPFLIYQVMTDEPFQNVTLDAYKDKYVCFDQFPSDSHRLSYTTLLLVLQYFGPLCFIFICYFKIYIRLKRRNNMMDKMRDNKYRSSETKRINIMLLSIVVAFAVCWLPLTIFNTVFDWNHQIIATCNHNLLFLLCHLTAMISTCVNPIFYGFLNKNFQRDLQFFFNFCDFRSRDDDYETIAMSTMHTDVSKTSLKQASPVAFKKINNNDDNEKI

B1: Ac[A24,A27,L28,L31]NPY24-36 (peptide)
peptide: Ac-ARHALNLLTRQRY-NH2
notes: also called Ac[Ala24, Ala27, Leu28, Leu31]NPY(24-36)
B2: Neuropeptide Y (ligand)
peptide: not shown

Each binder was assayed against T1, human neuropeptide Y Y2 receptor on … (assay: competition with 30 pM [125I]NPY on SMS-MSN cells (human Y2), filtration).

Point of comparison: Ac-LRHYLNLATRQRY-NH2 [Ac[L28,A31]NPY24-36], IC50 0.06 nM. Against it:
- Ac-ARAALNAATRQRY-NH2 [Ac[A24,26,27,30,31,L28]NPY24-36] — 53-fold higher, 3.16 nM
- Ac-LRAYLNLLTRQRY-NH2 [Ac[A26,L28,L31]NPY24-36] — 1100-fold higher, 63.1 nM
- Ac-LRHYLNLLARQRY-NH2 [Ac[L28,L31,A32]NPY24-36] — 42-fold higher, 2.51 nM
- B1 — 2-fold lower, 0.03 nM
- Ac-LRHYANLLTRQRY-NH2 [Ac[A28,L31]NPY24-36] — 210-fold higher, 12.6 nM
- Ac-LAHYRNLLTRQRY-NH2 [Ac[A25,R28,L31]NPY24-36] — 1.7-fold higher, 0.1 nM
- Ac-LRHYLNALTRQRY-NH2 [Ac[L28,A30,L31]NPY24-36] — 110-fold higher, 6.31 nM
- Ac-ARHYLNLLTRQRY-NH2 [Ac[A24,L28,L31]NPY24-36] — 320-fold higher, 19.2 nM
- Ac-LRHYLALLTRQRY-NH2 [Ac[L28,A29,L31]NPY24-36] — within 1.5-fold, 0.05 nM
- Ac-LAHYLNLLTRQRY-NH2 [Ac[A25,L28,L31]NPY24-36] — 33-fold higher, 2 nM
- Ac-LRHALNLLTRQRY-NH2 [Ac[A27,L28,L31]NPY24-36] — 2.2-fold higher, 0.13 nM

The binders below were run against Y1 receptors in anaesthetised rats (rat) (assay: cell-based or functional assay).

Point of comparison: Ac-LRAYLNLLTRQRY-NH2 [Ac[A26,L28,L31]NPY24-36], “Increase in BP (rel to NPY), anaesthetised rats” value 0 relative to NPY. Against it:
- Ac-ARAALNAATRQRY-NH2 [Ac[A24,26,27,30,31,L28]NPY24-36] — the same, 0 relative to NPY
- Ac-LRHYLNLLTRQRY-NH2 [Ac[L28,L31]NPY24-36] — the same, 0 relative to NPY
- Ac-LRHYLNLLARQRY-NH2 [Ac[L28,L31,A32]NPY24-36] — the same, 0 relative to NPY
- B1 — the same, 0 relative to NPY
- Ac-LRHYANLLTRQRY-NH2 [Ac[A28,L31]NPY24-36] — the same, 0 relative to NPY
- Ac-LAHYRNLLTRQRY-NH2 [Ac[A25,R28,L31]NPY24-36] — the same, 0 relative to NPY
- Ac-LRHYLNALTRQRY-NH2 [Ac[L28,A30,L31]NPY24-36] — the same, 0 relative to NPY
- Ac-ARHYLNLLTRQRY-NH2 [Ac[A24,L28,L31]NPY24-36] — the same, 0 relative to NPY
- Ac-LRHYLALLTRQRY-NH2 [Ac[L28,A29,L31]NPY24-36] — the same, 0 relative to NPY
- Ac-LAHYLNLLTRQRY-NH2 [Ac[A25,L28,L31]NPY24-36] — the same, 0 relative to NPY
- Ac-LRHYLNLATRQRY-NH2 [Ac[L28,A31]NPY24-36] — the same, 0 relative to NPY
- Ac-LRHALNLLTRQRY-NH2 [Ac[A27,L28,L31]NPY24-36] — the same, 0 relative to NPY
- Ac-LRAALNLLTRQRY-NH2 [Ac[A26,27,L28,31]NPY24-36] — the same, 0 relative to NPY
- Ac-LRHYINLITRQRY-NH2 (peptide, UniProt P01303 52-64, looked up) [AcNPY24-36] — the same, 0 relative to NPY
- B2 — higher, 1 relative to NPY

The binders below were run against Y2-like receptors in anaesthetised rats (rat) (assay: cell-based or functional assay).

Point of comparison: Ac-LRHALNLLTRQRY-NH2 [Ac[A27,L28,L31]NPY24-36], “EC50 of the change in pulse interval (PI %), vagal stimulation in anaesthetised rats” value 0.52 nmol. Against it:
- Ac-ARAALNAATRQRY-NH2 [Ac[A24,26,27,30,31,L28]NPY24-36] — higher, 0.56 nmol
- Ac-LRHYLNLLTRQRY-NH2 [Ac[L28,L31]NPY24-36] — higher, 3.16 nmol
- Ac-LRAYLNLLTRQRY-NH2 [Ac[A26,L28,L31]NPY24-36] — higher, 1.26 nmol
- Ac-LRHYLNLLARQRY-NH2 [Ac[L28,L31,A32]NPY24-36] — higher, 6.46 nmol
- B1 — higher, 0.89 nmol
- Ac-LRHYANLLTRQRY-NH2 [Ac[A28,L31]NPY24-36] — higher, 2.75 nmol
- Ac-LAHYRNLLTRQRY-NH2 [Ac[A25,R28,L31]NPY24-36] — higher, 1.95 nmol
- Ac-LRHYLNALTRQRY-NH2 [Ac[L28,A30,L31]NPY24-36] — lower, 0.39 nmol
- Ac-ARHYLNLLTRQRY-NH2 [Ac[A24,L28,L31]NPY24-36] — lower, 0.46 nmol
- Ac-LRHYLALLTRQRY-NH2 [Ac[L28,A29,L31]NPY24-36] — higher, 1.48 nmol
- Ac-LAHYLNLLTRQRY-NH2 [Ac[A25,L28,L31]NPY24-36] — higher, 1.58 nmol
- Ac-LRHYLNLATRQRY-NH2 [Ac[L28,A31]NPY24-36] — higher, 0.78 nmol
- Ac-LRAALNLLTRQRY-NH2 [Ac[A26,27,L28,31]NPY24-36] — higher, 1 nmol

Each binder was assayed against T2, human neuropeptide Y Y1 receptor on … (assay: competition with 30 pM [125I]NPY on SK-N-MC cells (human Y1), filtration).

Ac-LAHYRNLLTRQRY-NH2 [Ac[A25,R28,L31]NPY24-36] showed an IC50 of 692 nM.

Reference: patent publication US6696409 (PRINCE OF WALES MEDICAL RESEARCH INSTITUTE LIMITED POWMR, dated 2004)
